Tests used:
[1] = target: T1, Human neutrophil-derived myeloperoxidase (nMPO) (human), P05164; test: mass photometry; single-molecule mass photometry of intact nMPO on coverslips with silicone gaskets; apparent; diprotomer (ααββ) to monoprotomers (αβ)
[2] = target: T1, Human neutrophil-derived …; test: native MS; whole unfractionated intact nMPO infused by nano-ESI (gold-coated capillaries) into a modified Q-Exactive, positive ion polarity

B1: Human neutrophil-derived myeloperoxidase (nMPO), P05164 279-745; P05164 279-745 (enzyme)
chain 1: not shown
chain 2: VNCETSCVQQPPCFPLKIPPNDPRIKNQADCIPFFRSCPACPGSNITIRNQINALTSFVDASMVYGSEEPLARNLRNMSNQLGLLAVNQRFQDNGRALLPFDNLHDDPCLLTNRSARIPCFLAGDTRSSEMPELTSMHTLLLREHNRLATELKSLNPRWDGERLYQEARKIVGAMVQIITYRDYLPLVLGPTAMRKYLPTYRSYNDSVDPRIANVFTNAFRYGHTLIQPFMFRLDNRYQPMEPNPRVPLSRVFFASWRVVLEGGIDPILRGLMATPAKLNRQNQIAVDEIRERLFEQVMRIGLDLPALNMQRSRDHGLPGYNAWRRFCGLPQPETVGQLGTVLRNLKLARKLMEQYGTPNNIDIWMGGVSEPLKRKGRVGPLLACIIGTQFRKLRDGDRFWWENEGVFSMQQRQALAQISLPRIICDNTGITTVSKNNIFMSNSYPRDFVNCSTLPALNLASWREAS
modifications: heme covalently links the α- and β-chains; Met251 and Met253 oxidation and Trp255 oxidation variants; polypeptide truncation variants | N-glycans at Asn323 and Asn483 (mainly paucimannosidic M2F-M3F), Asn355 and Asn391 (mainly oligomannosidic M5-M6), Asn729 (largely unoccupied or GlcNAc1-GlcNAc1F); Met and Trp mono-/di-oxidation, Tyr mono-chlorination; Cys319-Cys319 bridge between the two …
[1]
  Kd: 0.05 nM
  percent diprotomer: 93%
  percent monoprotomer: 7%
  stoichiometry N: 2
[2]
  stoichiometry N: 2

Reference: article PMC7857493
